T1: VapB29;VapC29 (Mycobacterium tuberculosis …, UniProt P9WJ37;P9WF79 1-75;1-133, |)
T1 sequence 1: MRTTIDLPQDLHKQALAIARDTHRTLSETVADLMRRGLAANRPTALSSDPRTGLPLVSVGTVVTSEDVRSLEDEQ
T1 sequence 2: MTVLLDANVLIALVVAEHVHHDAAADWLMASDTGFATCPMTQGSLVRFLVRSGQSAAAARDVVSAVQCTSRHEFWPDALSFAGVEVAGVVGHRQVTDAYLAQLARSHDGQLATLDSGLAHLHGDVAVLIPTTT

B1: VapBC39 heterodimer (complex)
chain 1: MRTTLQIDDDVLEDARSIARSEGKSVGAVISELARRSLRPVGIVEVDGFPVFDVPPDAPTVTSEDVVRALEDDV
chain 2: MTALLDVNVLIALGWPNHVHHAAAQRWFTQFSSNGWATTPITEAGYVRISSNRSVMQVSTTPAIAIAQLAAMTSLAGHTFWPDDVPLIVGSAGDRDAVSNHRRVTDCHLIALAARYGGRLVTFDAALADSASAGLVEVL
notes: VapB39 antitoxin of Mycobacterium tuberculosis, gene Rv2530a; as m9; VapC39 toxin of Mycobacterium tuberculosis, gene Rv2530c; as m10; also called Rv2530a/Rv2530c
B2: VapBC1 heterodimer (complex)
chain 1: MATIQVRDLPEDVAETYRRRATAAGQSLQTYMRTKLIEGVRGRDKAEAIEILEQALASTASPGISRETIEASRRELRGG
chain 2: MDECVVDAAAVVDALAGKGASAIVLRGLLKESISNAPHLLDAEVGHALRRAVLSDEISEEQARAALDALPYLIDNRYPHSPRLIEYTWQLRHNVTFYDALYVALATALDVPLLTGDSRLAAAPGLPCEIKLVR
notes: VapB1 antitoxin of Mycobacterium tuberculosis, gene Rv0064a; as m1; VapC1 toxin of Mycobacterium tuberculosis, gene Rv0065; as m2; also called Rv0064a/Rv0065
B3: VapBC19 heterodimer (complex)
chain 1: MRTQVTLGKEELELLDRAAKASGASRSELIRRAIHRAYGTGSKQERLAALDHSRGSWRGRDFTGTEYVDAIRGDLNERLARLGLA
chain 2: MKLIDTTIAVDHLRGEPAAAVLLAELINNGEEIAASELVRFELLAGVRESELAALEAFFSAVVWTLVTEDIARIGGRLARRYRSSHRGIDDVDYLIAATAIVVDADLLTTNVRHFPMFPDLQPPY
notes: VapB19 antitoxin of Mycobacterium tuberculosis, gene Rv2547; as m3; VapC19 toxin of Mycobacterium tuberculosis, gene Rv2548; as m4; also called Rv2547/Rv2548
B4: VapBC29 heterodimer (complex)
chain 1: T1 sequence 1
chain 2: T1 sequence 2
notes: VapB29 antitoxin of Mycobacterium tuberculosis, gene Rv0616a; as m7; VapC29 toxin of Mycobacterium tuberculosis, gene Rv0617; as m8; also called Rv0616a/Rv0617
B5: Oligo 5 Bind 3 (Mut. 3) (dsDNA)
DNA 1: GGTGAGCGTCGGCGCGAAAAAAACGATGCAGCGATGTTAGGATGAGGCGG
DNA 2: CCGCCTCATCCTAACATCGCTGCATCGTTTTTTTCGCGCCGACGCTCACC
B6: Oligo 5 Bind 5 (Mut. 5) (dsDNA)
DNA 1: GGTGAGCGTCGGCGCGCGCATCACGATGCAAAAAAATTAGGATGAGGCGG
DNA 2: CCGCCTCATCCTAATTTTTTTGCATCGTGATGCGCGCGCCGACGCTCACC

Target: the molecule itself
Test: SEC
Settings: not given

Binder	stoichiometry N
B1	4.9 VapBC heterodimers per complex
B2	5.6 VapBC heterodimers per complex
B3	3.61 VapBC heterodimers per complex
B4	5 VapBC heterodimers per complex

Target: T1, VapB29;VapC29
Test: EMSA
Settings: protein: recombinant;recombinant; tags: ;C-terminal His; label: 3' DIG-ddUTP; blunt

Binder	binding result
B5	no binding
B6	no binding

Source: paper PMC6118392, “VapC proteins from Mycobacterium tuberculosis share ribonuclease sequence specificity but differ in regulation and toxicity” (PLoS ONE, 2018)
